The values below come from publication PMC3032639.

Assay [1] addresses TraB C-terminal domain (TraBCT) (E. coli (plasmid pKM101)). Nature of the assay: SAXS; beamline ID02 (ESRF), buffer GFsol, 20°C; TraBCT 2.1-8.2 mg/ml, LvhB4 2-8.9 mg/ml; molecular mass from forward scattering I(0), absolute calibration with water; self-association.
Assay [2] has the same target. The assay is described as follows: SEC. In general terms: In gel filtration, larger molecules generally elute earlier.
Assay [3] addresses TraB N-terminal domain (TraBNT), membrane-extracted form (E. coli (plasmid pKM101)) (UniProt P41067). The assay is described as follows: SAXS; beamline X33 (EMBL-Hamburg), buffer GFmb; TraBFL 3-13.5 mg/ml, TraBNT 1.3-8.2 mg/ml; molecular mass from forward scattering I(0), calibrated with BSA; self-association.
The target is the same in assay [4]. Nature of the assay: SEC.
Assay [5] concerns the target TraB full-length (TraBFL), the VirB4 homolog encoded by the E. coli pKM101 plasmid, membrane-extracted form (E. coli (plasmid pKM101)) (UniProt P41067). Nature of the assay: SAXS; beamline X33 (EMBL-Hamburg), buffer GFmb; TraBFL 3-13.5 mg/ml, TraBNT 1.3-8.2 mg/ml; molecular mass from forward scattering I(0), calibrated with BSA; self-association.
Assay [6] shares this target. The assay is described as follows: SEC.

“TraB C-terminal domain (TraBCT) (domain or fragment)”: the stoichiometry N in assay [1] and in assay [2] was 2 each time.

For “TraB N-terminal domain (TraBNT), membrane-extracted form (from UniProt P41067 1-442) (domain or fragment)”, the stoichiometry N in assay [3] and in assay [4] was 2 each time.

“TraB full-length (TraBFL), the VirB4 homolog encoded by the E. coli pKM101 plasmid, membrane-extracted form (from UniProt P41067 1-475) (natural protein)”: the stoichiometry N in assay [5] and in assay [6] was 2 throughout.
